The values that follow come from patent US20240390512A1, “METHODS OF TREATING CHEMOTHERAPY-RESISTANT CANCER WITH AN ANTIBODY-DRUG CONJUGATE” (DAIICHI SANKYO COMPANY, LIMITED, priority 2021, published 2024).

Positions count from the first letter of the chain named.

T1: human CDH6 (full-length and EC domain deletion mutants) (Homo sapiens, UniProt P55285, DEL160-268)
T1 construct: each one of the five EC domains could be deleted from full-length human CDH6; 3xFLAG (deletion mutants only, from the vector p3×FLAG-CMV-9); expressed in transfected cells; host or cells: 293α cells
T1 sequence (P55285 with tags, fused parts or gaps DEL160-268): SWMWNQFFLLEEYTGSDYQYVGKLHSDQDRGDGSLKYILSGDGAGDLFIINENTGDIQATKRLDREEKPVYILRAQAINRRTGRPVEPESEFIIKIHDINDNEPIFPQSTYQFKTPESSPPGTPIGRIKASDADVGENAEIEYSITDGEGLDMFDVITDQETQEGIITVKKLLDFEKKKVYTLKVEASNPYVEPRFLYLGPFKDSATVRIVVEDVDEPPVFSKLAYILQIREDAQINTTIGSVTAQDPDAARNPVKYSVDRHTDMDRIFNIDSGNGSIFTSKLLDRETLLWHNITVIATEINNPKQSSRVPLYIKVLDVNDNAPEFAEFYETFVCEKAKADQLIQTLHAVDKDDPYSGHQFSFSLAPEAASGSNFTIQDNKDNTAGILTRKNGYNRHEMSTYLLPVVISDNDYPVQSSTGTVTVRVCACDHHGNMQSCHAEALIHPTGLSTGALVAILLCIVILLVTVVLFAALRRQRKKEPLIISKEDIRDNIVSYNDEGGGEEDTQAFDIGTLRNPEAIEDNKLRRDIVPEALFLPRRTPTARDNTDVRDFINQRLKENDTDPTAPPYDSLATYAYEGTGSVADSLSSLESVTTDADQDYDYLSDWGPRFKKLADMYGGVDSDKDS

T2: human CDH6 (full-length and EC domain deletion mutants) (Homo sapiens, UniProt P55285)
T2 construct: each one of the five EC domains could be deleted from full-length human CDH6; 3xFLAG (deletion mutants only, from the vector p3×FLAG-CMV-9); expressed in transfected cells; host or cells: 293α cells
T2 sequence (P55285 54-790): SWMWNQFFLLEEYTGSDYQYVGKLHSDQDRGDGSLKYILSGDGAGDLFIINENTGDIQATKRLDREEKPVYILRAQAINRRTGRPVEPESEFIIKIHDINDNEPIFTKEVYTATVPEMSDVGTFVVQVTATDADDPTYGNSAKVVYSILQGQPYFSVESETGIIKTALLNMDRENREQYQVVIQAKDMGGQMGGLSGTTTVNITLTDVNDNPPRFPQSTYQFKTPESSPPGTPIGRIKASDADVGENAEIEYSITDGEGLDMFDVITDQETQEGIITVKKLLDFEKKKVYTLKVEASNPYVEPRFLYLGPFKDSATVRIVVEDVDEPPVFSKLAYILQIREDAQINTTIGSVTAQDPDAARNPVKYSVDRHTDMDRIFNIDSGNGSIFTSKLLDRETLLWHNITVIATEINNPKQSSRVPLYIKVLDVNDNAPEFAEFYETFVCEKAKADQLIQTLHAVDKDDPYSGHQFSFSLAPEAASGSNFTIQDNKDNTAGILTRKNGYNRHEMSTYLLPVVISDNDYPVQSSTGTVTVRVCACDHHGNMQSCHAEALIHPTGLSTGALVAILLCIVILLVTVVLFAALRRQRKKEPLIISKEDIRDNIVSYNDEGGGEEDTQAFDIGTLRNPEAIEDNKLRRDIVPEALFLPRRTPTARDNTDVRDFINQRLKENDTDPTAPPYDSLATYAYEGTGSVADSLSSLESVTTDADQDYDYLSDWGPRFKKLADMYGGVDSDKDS

B1: rG055: rat anti-human CDH6 monoclonal antibody produced by hybridoma rG055; variable regions SEQ ID NO: 20 and 25 (antibody, listed as Rattus norvegicus, V domains shown)
VL: DVQMTHSPSYLAASPGESVSISCKTSKNISNYLVWYQQKPGEAYKLLIYSGSTLQSGTPSRFSGSGSGTDFTLTIRSLEPEDFGLYFCQQYYEKPFTFGSGTKLEIKRA
VH: EVQLQESGPGLVRPSQSLSLSCSVTDYSITSNYWGWIRRFPGNKMEWMGYITYSGYTSYNPSLQSRISITRDTSKNQFFLQLNSVTAEDTATYYCARSINHGGYSYVVDAWGPGASVTVSS
B2: rG061: rat anti-human CDH6 monoclonal antibody produced by hybridoma rG061; variable regions SEQ ID NO: 40 and 45 (antibody, listed as Rattus norvegicus, V domains shown)
VL: B1 VL with H6Q, T25A, S26T, N28S, V34A, L46V, F87S, F96L
VH: EVQLQESGPGLVKPSQSLSLTCSVTGYSITTYYWGWIRKFPGNKMEWMGYISYSGRTSYNPSLKSRMSITRDASKNQFFLQLNSVTTDDTATYYCARSPINHGGYWYFDFWGPGTMVTVSS
B3: rG019: rat anti-human CDH6 monoclonal antibody produced by hybridoma rG019; variable regions SEQ ID NO: 10 and 15 (antibody, listed as Rattus norvegicus, V domains shown)
VL: DIQMTQSPSLLSASVGDRVTLNCKASQNIYKNLAWYQQKLGEGPKLLIYDANTLQTGIPSRFSGSGSGSDFTLTISSLQPEDVATYFCQQYYSGWAFGGVTNLELKRA
VH: QVQLQQSGAELVKPGSSVKISCKASGYTFTRNFMHWIKQQPGNGLEWIGWIYCGDGETEYNQKFNGKATLTADRSSSTAYMELSRLTSEDSAVYFCARGVYGGFAGGYFDFWGQGVMVTVSS
B4: rG056: rat anti-human CDH6 monoclonal antibody produced by hybridoma rG056; variable regions SEQ ID NO: 30 and 35 (antibody, listed as Rattus norvegicus, V domains shown)
VL: DVQMTQSPSSLAASPGESVSISCRATKSIGIYLAWYQQKPGKTFKLLIYSGSTLQSGTPSRFSGSGSGTDFTLTIRSLEPEDFGLYFCQQFYENPFTFGSGTKLEIRRA
VH: EVQLQESGPGLVKPSQSLSLTCSVTDYSITTYFWGWIRKFPGNKMEWMGYMSYRGGTSYNPSLKSRISITRDTSKNQFFLQLNSVTTEDTATYYCARCPNYGGHSLVFDYWGQGVMVTVSS

In one experiment the target is T1, human CDH6 (full-length and EC domain deletion mutants). Description: Epitope analysis of rat anti-CDH6 antibody by flow cytometry using domain deletion mutants. Type of experiment: binding. The conditions noted are these: flow cytometry; transfected 293α cells; antibody 20 nM. The text has this: (§1) The full-length extracellular region of human CDH6 has five extracellular domains, EC1 (SEQ ID NO: 2), EC2 (SEQ ID NO: 3), EC3 (SEQ ID NO: 4), EC4 (SEQ ID NO: 5), and EC5 (SEQ ID NO: 6). A gene to be expressed such that each one of the five EC domains could be deleted from full-length human CDH6 was synthesized by GeneArt, and incorporated into p3×FLAG-CMV-9 vectors for mammalian expression (Sigma-Aldrich Co. LLC) according to a method known to a person skilled in the art in order to produce an expression vector for each domain deletion mutant lacking any one of EC1 to EC5.
(§2) The epitopes to which the rat anti-human CDH6 antibodies bound were identified by flow cytometry analysis using a 293α cell line transfected with each EC domain deletion vector. Using Lipofectamine 2000 (Thermo Fisher Scientific Inc.), each domain deletion mutant expression vector produced in Reference Example 2)-2-1, or pcDNA3.1-hCDH6 for the expression of full-length human CDH6 was transiently introduced into a 293α cell line, which was a cell line derived from HEK293 cells by stable transfection with integrin αv and integrin […] expression vectors. The cells were cultured overnight under conditions of 37° C. and 5% CO2, and thereafter, a cell suspension was prepared. The suspension of the transfected 293α cells was centrifuged, and a supernatant was then removed. Thereafter, the cells were suspended by the addition of each of the 4 rat anti-CDH6 monoclonal antibodies (clone Nos: rG019, rG055, rG056 and rG061), which had been prepared in Reference Example 1)-7, or rat IgG control (R&D Systems, Inc.) (final concentration: 20 nM). The cells were left standing at 4° C. for 1 hour. The cells were washed twice with PBS supplemented with 5% FBS, and then suspended by the addition of Anti-Rat IgG (whole molecule)-FITC antibody produced in rabbit (Sigma-Aldrich Co. LLC) that had been 50-fold diluted with PBS supplemented with 5% FBS. The cells were left standing at 4° C. for 1 hour. The cells were washed twice with PBS supplemented with 5% FBS, followed by detection using a flow cytometer (Canto II; BD Biosciences). The data was analyzed using FlowJo (Tree Star, Inc.). In the histograms of FIGS. 2-1 to 2-6, the abscissa depicts FITC fluorescence intensity indicating the amount of the antibody bound, and the ordinate depicts cell count. […] Fluorescence intensity is enhanced when the antibody binds to full-length hCDH6 or each EC domain deletion mutant on the surface of cells. The rat IgG control binds to none of the transfected cells.
As to B1, the “binding to EC2 deletion mutant” value is listed as “bind”.

As to B2, the “binding to EC2 deletion mutant” value is listed as “bind”.

In the case of B3, the “binding to EC2 deletion mutant” value was “bind”.

On to B4, for which the “binding to EC2 deletion mutant” value is listed as “bind”.

A further experiment deals with T2, human CDH6 (full-length and EC domain deletion mutants). The experiment is described as above. The conditions noted are these: flow cytometry; transfected 293α cells; antibody 20 nM. The experiment is classed as binding.
From the text: as §1, §2
In general terms: Flow cytometry measures light scatter and fluorescence of single cells or particles in a stream.
Regarding B1, the “binding to full-length hCDH6” value is listed as “bind”.

B2: the “binding to full-length hCDH6” value is recorded as “bind”.

For the molecule B3, the “binding to full-length hCDH6” value was “bind”.

For B4, the “binding to full-length hCDH6” value was “bind”.

Staying with this experiment, now noted: from domain deletion mutant binding.
With B1, the “epitope on hCDH6” value was “EC3”.

For B2, the “epitope on hCDH6” value is recorded as “EC3”.

Turning to B3, the “epitope on hCDH6” value is reported as “EC3”.

Consider B4, for which the “epitope on hCDH6” value is “EC3”.
